Test results taken from patent publication US20170152290A1.

Assays:
[1] = target: LRP1 receptor (Low Density Lipoprotein Receptor-Related Protein) on Vero cells; experiment: cell-based or functional assay
[2] = target: T1, sLRP1-CIV (cluster IV of LRP1 fused to the constant region of a human IgG1) (human); experiment: SPR (Biacore X), sLRP1-CIV immobilised on CM5 chip, peptide at 20 µM; RU at 270 s
[3] = target: T1, sLRP1-CIV (cluster IV of LRP1 fused to …); experiment: SPR (Biacore X), sLRP1-CIV immobilised on CM5 chip, peptide at 20 µM; RU observed at 160 s

Binder | Antiviral activity in Vero cells, IC50 (plaque reduction, DENV2) [1] [µM] | RU (at 270 s) [2] [RU] | other results
CVNWTEPDKKVNWCKKK (modifications not checked) [beta hairpin peptide PHB1] | 75 | 117 | –
CSNIVIGIGDKALKINWCKKK (modifications not checked) [peptide HDIII3CL2] | 20 | – | RU (at 160 s) [3]: 1010 RU
CSNIVIGIGDKALKINACKKK (modifications not checked) [peptide HDIII3CLW-] | > 100 | – | –
CSNIVIGIGDKALAINWCKKK (modifications not checked) [peptide HDIII3CLK-] | > 100 | – | RU (at 160 s) [3]: 276 RU
SSNIVIGIGDKALKINWSKKK (modifications not checked) [peptide HDIII3CLC-] | > 100 | – | –
CIEVYWTRPKWKVNWFICKKK (modifications not checked) [beta hairpin peptide PHB4] | 0.003 | 3600 | Antiviral activity IC50 vs DENV1 (plaque reduction, Vero cells) [1]: 2 nM; Antiviral activity IC50 vs DENV2 (plaque reduction, Vero cells) [1]: 3 nM; Antiviral activity IC50 vs DENV3 (plaque reduction, Vero cells) [1]: 5 nM; Antiviral activity IC50 vs DENV4 (plaque reduction, Vero cells) [1]: 0.01 µM
CVYWTRPKWKVNWCKKK (modifications not checked) [beta hairpin peptide PHB2] | 12 | 861 | –
CIEVNWTEPDKKVNWFICKKK (modifications not checked) [beta hairpin peptide PHB3] | 17 | – | –
FWNWKWEKNKWTWNVEGGKKK (modifications not checked) [beta hairpin peptide PHB5] | 17 | 175 | –
FWNWKWEPNKWTWNVEGGKKK (modifications not checked) [beta hairpin peptide PHB6] | 33 | – | –
CVNVTINGKKYNWCKKK (modifications not checked) [beta hairpin peptide PHB7] | 79 | – | –
CIEVNVTINGKKYNWFICKKK (modifications not checked) [beta hairpin peptide PHB8] | 15 | – | –
CIEVYVTINGKKYNWFICKKK (modifications not checked) [beta hairpin peptide PHB9] | 7 | 1080 | –
